Columns and labels:
[1] = biological target: T1, Human CD73 on cells (MDA-MB-231, Jurkat CD73 knock-in, NCI-H322) (human, UniProt P21589 27-549); assay: flow cytometry, MDA-MB-231 / MDA-MB-231(CD73-shRNA)
T1 construct: GPI-anchored native protein; also called native human CD73
T1 sequence: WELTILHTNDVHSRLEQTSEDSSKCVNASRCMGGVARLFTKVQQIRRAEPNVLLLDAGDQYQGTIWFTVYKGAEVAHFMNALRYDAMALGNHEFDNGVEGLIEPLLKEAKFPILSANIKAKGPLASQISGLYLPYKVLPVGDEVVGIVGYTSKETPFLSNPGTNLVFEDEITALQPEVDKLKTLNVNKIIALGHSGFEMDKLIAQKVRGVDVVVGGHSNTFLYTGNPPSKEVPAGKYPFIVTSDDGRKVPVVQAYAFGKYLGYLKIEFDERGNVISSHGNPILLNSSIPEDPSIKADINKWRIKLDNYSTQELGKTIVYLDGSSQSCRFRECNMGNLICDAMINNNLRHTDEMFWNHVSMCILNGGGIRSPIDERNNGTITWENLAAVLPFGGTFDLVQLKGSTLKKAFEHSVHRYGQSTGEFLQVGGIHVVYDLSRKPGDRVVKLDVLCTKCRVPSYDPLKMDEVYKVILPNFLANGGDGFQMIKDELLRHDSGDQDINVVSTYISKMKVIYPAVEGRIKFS

HDX_E1 CD73 chimera = biological target: T2, HDX_E1 CD73 chimera (human; chicken, UniProt P21589 27-553); assay: SPR (ProteOn), CD73 variant immobilized on HTG chip
T2 chain: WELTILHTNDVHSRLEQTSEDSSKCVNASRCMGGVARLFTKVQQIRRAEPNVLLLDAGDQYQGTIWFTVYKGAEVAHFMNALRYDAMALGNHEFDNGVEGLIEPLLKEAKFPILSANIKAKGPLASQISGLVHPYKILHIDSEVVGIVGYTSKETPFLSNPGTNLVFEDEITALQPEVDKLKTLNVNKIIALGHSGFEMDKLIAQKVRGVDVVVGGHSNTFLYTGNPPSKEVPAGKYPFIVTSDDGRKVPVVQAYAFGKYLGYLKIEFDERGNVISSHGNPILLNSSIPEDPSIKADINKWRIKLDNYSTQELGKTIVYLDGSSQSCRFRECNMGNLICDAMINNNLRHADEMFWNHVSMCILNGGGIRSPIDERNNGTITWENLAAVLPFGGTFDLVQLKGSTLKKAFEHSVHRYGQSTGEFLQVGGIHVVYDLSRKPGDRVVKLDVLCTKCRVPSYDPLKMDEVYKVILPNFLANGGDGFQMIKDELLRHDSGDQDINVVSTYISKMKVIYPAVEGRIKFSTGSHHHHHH
Description: Binding of MEDI9447 to wild-type and mutant CD73 proteins was measured by surface plasmon resonance (SPR) using a ProteOn instrument (BioRad). CD73 crude cell supernatant protein samples were diluted to 3 µg/ml in PBS, 0.005% Tween-20, pH 7.4 (BioRad) and immobilized to ~400 RU on a HTG tris-NTA sensor chip (BioRad) pre-activated with 10 mM NiSO₄, 10 mM MES, pH 6.0 (BioRad). An equivalently diluted crude cell supernatant sample from non-transfected cells was included as a reference channel control. Sensorgrams were recorded by flowing two-fold dilutions of MEDI9447 prepared in PBS, 0.005% Tween-20, pH 7.4, ranging from 5 nM to 0.31 nM. […] Antibody binding was measured at a flow rate of 100 µL/min with a 3 min association phase and 20 min dissociation phase. The sensor chip surface was regenerated between each run by an 800 s injection of 300 mM EDTA, pH 8.5 (BioRad) at a flow rate of 30 µL/min. Binding kinetics were analyzed using the ProteOn data analysis software. Double referencing was performed and, unless noted otherwise, a 1:1 Langmuir binding model was utilized to fit the data. Some CD73 variants containing mutations within the amino acid region 171-188 fit poorly to a 1:1 model (i.e., Chi² values >10% of Rmax). Where noted, these variants were fit with a heterogenous antigen (2:1) model. […] Due to the assay format (antigen immobilized) and the dimeric state of CD73, KD values may be exaggerated due to avidity effects. However, it is not anticipated that this impacts ranking of MEDI9447 binding to the different CD73 variants.

B1: MEDI9447 (antibody, human IgG1, lambda, V domains shown)
VH: EVQLLESGGGLVQPGGSLRLSCAASGFTFSSYAYSWVRQAPGKGLEWVSAISGSGGRTYYADSVKGRFTISRDNSKNTLYLQMNSLRAEDTAVYYCARLGYGRVDEWGRGTLVTVSS
VL: QSVLTQPPSASGTPGQRVTISCSGSLSNIGRNPVNWYQQLPGTAPKLLIYLDNLRLSGVPDRFSGSKSGTSASLAISGLQSEDEADYYCATWDDSHPGWTFGGGTKLTVLG
notes: Human IgG1-TM (L234F, L235E, P331S), lambda light chain; also called clone 10.3 antibody; 73combo3
Mean Fluorescence Intensity Ratio (MFIR) [1]: 3.5 | Kd (HDX_E1 CD73 chimera): 9.9 pM | koff (HDX_E1 CD73 chimera): 2.12e-05 s⁻¹ | kon (HDX_E1 CD73 chimera): 2.15e+06 M⁻¹ s⁻¹

— patent US20230340152A1 (published 2023)
